From publication PMC11529724 (Nature chemical biology, 2024)

Experiments:
[1] = target: subtilisin-treated unmodified human microtubules missing their β-tubulin tails (human (endogenous in tsA201), UniProt P68363 1-451; P07437 1-444); assay: TIRF microscopy binding assay
[2] = target: microtubules assembled from porcine brain tubulin (porcine, UniProt P02550 1-451; P02554 1-445); assay: co-sedimentation
Chain of microtubules assembled from porcine brain tubulin (P02550 whole entry, chain 1 of 2): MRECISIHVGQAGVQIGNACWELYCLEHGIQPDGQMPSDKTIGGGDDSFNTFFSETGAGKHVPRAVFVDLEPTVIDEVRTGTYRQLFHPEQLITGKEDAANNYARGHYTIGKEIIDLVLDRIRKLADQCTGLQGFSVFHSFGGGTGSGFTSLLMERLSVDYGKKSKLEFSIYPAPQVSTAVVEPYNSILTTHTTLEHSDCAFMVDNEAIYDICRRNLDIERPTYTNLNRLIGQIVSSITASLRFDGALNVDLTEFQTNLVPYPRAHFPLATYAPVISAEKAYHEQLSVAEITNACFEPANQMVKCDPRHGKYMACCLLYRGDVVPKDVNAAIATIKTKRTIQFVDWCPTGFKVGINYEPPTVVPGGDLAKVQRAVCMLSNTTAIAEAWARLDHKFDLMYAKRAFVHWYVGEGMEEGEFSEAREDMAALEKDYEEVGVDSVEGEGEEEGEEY
Chain of microtubules assembled from porcine brain tubulin (P02554 whole entry, chain 2 of 2): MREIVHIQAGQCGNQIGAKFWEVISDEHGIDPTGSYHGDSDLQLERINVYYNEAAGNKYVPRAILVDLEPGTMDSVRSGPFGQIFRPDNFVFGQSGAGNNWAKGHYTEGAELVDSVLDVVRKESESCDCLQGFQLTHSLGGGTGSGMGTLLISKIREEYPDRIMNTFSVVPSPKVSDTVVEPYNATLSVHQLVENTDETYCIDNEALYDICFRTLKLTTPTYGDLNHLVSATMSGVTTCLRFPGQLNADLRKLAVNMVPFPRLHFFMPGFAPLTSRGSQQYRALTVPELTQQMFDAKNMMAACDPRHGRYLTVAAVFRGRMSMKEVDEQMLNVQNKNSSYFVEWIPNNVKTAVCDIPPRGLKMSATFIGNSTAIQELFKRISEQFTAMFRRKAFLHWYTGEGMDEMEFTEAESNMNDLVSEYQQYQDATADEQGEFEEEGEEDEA

Chain of subtilisin-treated unmodified human microtubules missing their β-tubulin tails (P68363 whole entry, chain 1 of 2): as the sequence (P02550 whole entry, chain 1 of 2) above, with S136L, G232S, A265I, T340S, E358Q counted along it
Chain of subtilisin-treated unmodified human microtubules missing their β-tubulin tails (P07437 1-427, chain 2 of 2): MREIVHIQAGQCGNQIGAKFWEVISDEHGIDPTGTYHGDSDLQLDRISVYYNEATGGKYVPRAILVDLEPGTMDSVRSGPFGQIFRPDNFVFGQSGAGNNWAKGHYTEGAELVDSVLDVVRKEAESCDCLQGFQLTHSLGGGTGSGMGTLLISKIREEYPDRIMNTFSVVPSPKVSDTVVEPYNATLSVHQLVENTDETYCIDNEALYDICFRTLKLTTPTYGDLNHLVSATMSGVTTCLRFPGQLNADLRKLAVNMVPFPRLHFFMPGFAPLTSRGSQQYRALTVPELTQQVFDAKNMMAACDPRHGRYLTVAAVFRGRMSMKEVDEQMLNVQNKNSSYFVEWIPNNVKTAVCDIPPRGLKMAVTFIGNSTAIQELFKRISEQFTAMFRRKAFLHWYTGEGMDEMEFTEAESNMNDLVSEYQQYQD

B1: Atto488-labeled TTLL6 (enzyme, Mus musculus, UniProt A4Q9E8 51-502, looked up)
chain: GKKKRKKKRLVINLSNCRYDSVRRAAQQYGLREAGDNDDWTLYWTDYSVSLERVMEMKSYQKINHFPGMSEICRKDLLARNMSRMLKLFPKDFHFFPRTWCLPADWGDLQTYSRTRKNKTYICKPDSGCQGRGIFITRSVKEIKPGEDMICQLYISKPFIIDGFKFDLRVYVLVTSCDPLRVFVYNEGLARFATTSYSHPNLDNLDEICMHLTNYSINKHSSNFVQDAFSGSKRKLSTFNSYMKTHGYDVEQIWRGIEDVIIKTLISAHPVIKHNYHTCFPSHTLNSACFEILGFDILLDRKLKPWLLEVNHSPSFSTDSKLDKEVKDSLLYDALVLINLGNCDKKKVLEEERQRGRFLQQCPNREIRLEEVKGFQAMRLQKTEEYEKKNCGGFRLIYPGLNLEKYDKFFQDNSSLFQNTVASRARELYARQLIQELRQKQEKKVFLKKARK
modifications: Atto488 on the N-terminus, through the synthetic peptide NH2-(Atto488)-LPETGGGG ligated with sortase
- fold decrease in recruitment against MTs with intact β-tails [1]: ~18 fold

Binder: FQDNSSLFQNTVASRARELYARQLIQELRQKQEKKVFLKKARK (domain or fragment, Mus musculus, UniProt A4Q9E8 460-502, looked up) [TTLL6 MTBH1-2 (460–502)]
- Kd [2]: 3.7 µM
